The values that follow come from patent publication US20120076797A1, “Modulation of kit signaling and hematopoietic cell development by IL-4 receptor modulation” (priority 2010, published 2012).

Common to all, as to assay type: cell-based
Assay [1] relates to IL-4R (IL-4Rα and γc subunits). The assay is described as follows: KL stimulation of M07e cells; immunoprecipitation of IL-4R subunits and phosphotyrosine immunoblotting. Conditions: growth factor- and serum-deprived 12 hours, 250 ng/ml recombinant human KL, no IL-4. As for the experimental part: (§1) Cell culture. M07e cells (DSMZ, Braunschweig, Germany) were cultured in RPMI-1640 (Invitrogen/Gibco, Carlsbad, Calif.) with 10% fetal calf serum (FCS; Omega Scientific, Tarzana, Calif.) in the presence of human IL-3 (20 ng/ml; Biosource, Camarillo, Calif.) and human IL-4 (20 ng/ml; R&D Systems Inc, Minneapolis, Minn.). For stimulation of Kit with Kit ligand (KL), M07e cells were growth factor—as well as serum-deprived for 12 hours prior to stimulation with 250 ng/ml of recombinant human KL (Biosource, Camarillo, Calif.).
(§2) Immunoprecipitation and immunoblotting. Immunoprecipitation and immunoblotting were performed as reported previously (Mani, M. et al. Blood 114, 2900-2908 (2009)). Following stimulation with KL, cells were collected in ice-cold PBS containing 1 mM sodium ortho-vanadate (Sigma, St. Louis, Mo.), resuspended at a density of 1×10^7-2×10^7 cells/ml in lysis buffer containing 10 mM Tris-HCl (pH7.4), 150 mM NaCl, 20 mM sodium phosphate (pH7.4), 10 mM sodium pyrophosphate (pH7.4), 5 mM EDTA, 1 mM sodium ortho-vanadate, 1 mM glycerophosphate (Sigma) and 1% Triton X-100, and lysed. Protease inhibitors (Complete Protease Inhibitor Cocktail, Roche, Indianapolis, Ind.) were added according to manufacturer's recommendations. Post-nuclear supernatants were subjected to one round of pre-clearing with Protein A Sepharose (Amersham/Pharmacia, Piscataway, N.J.). […]
Background: Immunoblotting shows a protein as a band on a membrane.

For a further assay, the target named is T1, Kit (Homo sapiens, UniProt P10721).
T1 construct: M07e cells are known to express both Kit and IL-4R; host or cells: M07e (human megakaryoblastic cell line)
The assay can be described thus: KL stimulation of M07e cells; phosphorylation of Kit. Particulars: 250 ng/ml recombinant human KL. As to the method: as §1, §2

In assay [2] the test system is murine HSC (Lin-Sca-1+Kit+); IL-4R/STAT6. The assay is described as follows: Intracellular phospho-STAT6 analysis (Phospho-Flow) of murine HSC after IL-4 stimulation. Conditions: murine bone marrow Lin-Sca-1+Kit+ HSC, 1 ng/ml recombinant mouse IL-4, 15 min. An excerpt:
Intracellular phospho-STAT6 analysis. Cells derived from c-Kit(BAC)-EGFP mice that are transgenic for a bacterial artificial chromosome expressing EGFP under the control of the Kit promoter were used instead of anti-Kit antibodies (Tallini, Y. N. et al. Proc Natl Acad Sci USA 106, 1808-1813 (2009)). Freshly isolated murine bone marrow mononuclear cells were suspended in cold RPMI-1640 containing 10% FBS and stained with PE-CY7 conjugated anti-mouse Sca-1 (BD Biosciences, San Jose, Calif., Cat 558162) and PE conjugated anti-mouse lineage cocktail (Biolegend, San Diego, Calif. Cat: 78035) at 4° C. for 60 min. The cells were washed with cold RPMI-1640 containing 10% FBS and resuspended in pre-warmed RPMI-1640 containing 10% FBS at concentration of 5-10 million cells/ml. Cells were transferred as 0.5 ml aliquots into flow cytometry test tubes (BD Biosciences, Falcon 2052), rested at 37° C. for 1 hr and stimulated with 1 ng/ml of recombinant mouse IL-4 (Invitrogen, Cat: PMC 0045) for 15 min. Cells were fixed by adding 25 μl of 32% paraformaldehyde (EM grade, Electron Microscopy Sciences, Hatfield, Pa., Cat: 15714) at room temperature for 10 min. […] Samples were washed (centrifugation at 1800 rpm for 5 min) once with staining buffer and analyzed on an FACS Aria II (BD Biosciences). The results were analyzed using Flow Jo software.

“Also recorded” adds a separate entry of the source.

T1 sequence (P10721 26-976): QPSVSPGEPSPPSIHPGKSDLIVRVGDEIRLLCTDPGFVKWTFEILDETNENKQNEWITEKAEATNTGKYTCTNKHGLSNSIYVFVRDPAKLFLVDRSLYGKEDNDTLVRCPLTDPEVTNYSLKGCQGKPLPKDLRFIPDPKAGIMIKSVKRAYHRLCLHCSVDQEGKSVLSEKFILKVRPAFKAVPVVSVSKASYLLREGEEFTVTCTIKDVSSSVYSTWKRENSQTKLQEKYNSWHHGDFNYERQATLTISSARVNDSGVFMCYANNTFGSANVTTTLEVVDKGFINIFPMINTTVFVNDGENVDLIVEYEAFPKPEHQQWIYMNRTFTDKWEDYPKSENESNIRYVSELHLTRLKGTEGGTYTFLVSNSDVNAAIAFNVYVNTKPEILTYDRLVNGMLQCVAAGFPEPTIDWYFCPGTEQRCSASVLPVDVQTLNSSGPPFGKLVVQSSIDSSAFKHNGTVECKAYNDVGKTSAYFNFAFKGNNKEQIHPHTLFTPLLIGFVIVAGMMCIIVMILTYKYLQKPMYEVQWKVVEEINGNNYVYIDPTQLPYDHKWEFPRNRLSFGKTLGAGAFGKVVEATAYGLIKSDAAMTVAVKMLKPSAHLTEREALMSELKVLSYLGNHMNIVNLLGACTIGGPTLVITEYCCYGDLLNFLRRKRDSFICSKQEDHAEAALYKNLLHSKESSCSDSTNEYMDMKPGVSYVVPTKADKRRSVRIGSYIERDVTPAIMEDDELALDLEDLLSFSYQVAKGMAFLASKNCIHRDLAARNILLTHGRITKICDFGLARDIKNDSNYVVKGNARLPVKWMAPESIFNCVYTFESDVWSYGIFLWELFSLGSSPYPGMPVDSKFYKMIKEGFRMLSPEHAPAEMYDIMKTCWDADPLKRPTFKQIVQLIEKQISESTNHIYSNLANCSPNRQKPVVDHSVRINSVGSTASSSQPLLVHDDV

On to “KL: recombinant human Kit ligand (Biosource), ligand of the Kit receptor, used to stimulate M07e cells”, for which the “time to tyrosine phosphorylation of IL-4Rα and γc subunits of IL-4R after KL treatment” value in assay [1] is not above 5 min. For the same molecule, the “phosphorylation of Kit after KL stimulation” value with Kit was “rapid phosphorylation of Kit”.

B1: IL-4: recombinant mouse interleukin 4 (Invitrogen), cognate ligand of IL-4R, used to stimulate murine HSC (protein)
chain: HIHGCDKNHLREIIGILNEVTGEGTPCTEMDVPNVLTATKNTTESELVCRASKVLRIFYLKHGKTPCLKKNSSVLMELQRLFRAFRCLDSSISCTMNESKSTSLKDFLESLKSIMQMDYS
For the molecule B1, the “STAT6 phosphorylation in response to IL-4 stimulation” value in assay [2] is given as “STAT6 phosphorylation was observed; also recorded: STATE phosphorylation”.
